T1: Dickkopf-1 (DKK-1) (human, UniProt O94907 32-266)
T1 sequence: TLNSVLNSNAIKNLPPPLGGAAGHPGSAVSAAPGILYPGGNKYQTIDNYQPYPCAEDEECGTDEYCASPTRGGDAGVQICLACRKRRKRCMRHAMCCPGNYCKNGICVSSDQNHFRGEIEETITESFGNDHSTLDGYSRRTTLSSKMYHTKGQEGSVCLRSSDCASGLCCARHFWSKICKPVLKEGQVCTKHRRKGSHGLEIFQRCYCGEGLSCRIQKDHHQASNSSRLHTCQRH

B1: DK2_58t (ssDNA)
DNA: CGACTCGGTGTACCCGCATAGACCCTGCGTCCGCTGTATGTACACGTAAGCCCTGTCG
modifications: 3'-amino linker (C6, Spacer 18)

Target: T1, Dickkopf-1 (DKK-1)
Test: ELASA; ELASA: DKK-1 coated at 2 ug/mL, BSA-blocked; aptamer 3.12-100 nM in PBSMT (1x PBS pH 7.4, 5 mM MgCl2, 0.05% Tween 20), 1 h, 25 C
Settings: protein: commercial, tags: N-terminal His-tag (stated for the selection protein), label: biotin

Row | Binder | Kd (stem-loop) [nM] | Kd (three-way junction) [nM]
1 | CGGCATGTATCTGGCTGCTGAGTGTACGATTCCAGTATATATGAGCCG (ssDNA, 3'-amino linker (C6, Spacer 18)) [DK1_48t] | 10 ± 6 | –
2 | B1 | – | 3.6 ± 2
3 | CGGTGTACCCGCATAGACCCTGCGTCCGCTGTATGTACACGTAAGCCG (ssDNA, 3'-amino linker (C6, Spacer 18)) [DK2_48t] | – | 3.3 ± 2
4 | CACGACTCGGAGTGCGTACAGCAAGCACATATGTGCTCTCCCAGAGCGTG (ssDNA, 3'-amino linker (C6, Spacer 18)) [DK4_50t] | – | 6.1 ± 2
5 | CCTCGGAGTGCGTACAGCAAGCACATATGTGCTCTCCCAGG (ssDNA, 3'-amino linker (C6, Spacer 18)) [DK4_41t] | – | 5.6 ± 3
